Measurements from IntAct's records for PubMed 9171338.

B1: Clathrin heavy chain (Saccharomyces cerevisiae), P22137 (parent)
chain: MSDLPIEFTELVDLMSLGISPQFLDFRSTTFESDHFVTVRETKDGTNSVAIVDLAKGNEVTRKNMGGDSAIMHPSQMVISVRANGTIVQIFNLETKSKLKSFTLDEPVIFWRWLSETTLGFVTARSILTSNVFDGNVNAKPQLLTLRHANLNNTQIINFVANKNLDWFAVVGILQENGRIAGRIQLFSKQRNISQAIDGHVAIFTNILLEGNGSTPVQVFVTGNRNATTGAGELRIIEIDHDASLPSQYQKETTDIFFPPDATNDFPIAVQVSEKYGIIYLLTKYGFIHLYELETGTNLFVNRITAESVFTAAPYNHENGIACINKKGQVLAVEISTSQIVPYILNKLSNVALALIVATRGGLPGADDLFQKQFESLLLQNDYQNAAKVAASSTSLRNQNTINRLKNIQAPPGAISPILLYFSTLLDKGKLNKEETIELARPVLQQDRKQLFEKWLKEDKLECSEELGDIVKPFDTTLALACYLRAGAHAKVISCLAELQQFEKIIPYCQKVGYQPNFLVLISSLIRSSPDRASEFAVSLLQNPETASQIDIEKIADLFFSQNHIQQGTSLLLDALKGDTPDQGHLQTRVLEVNLLHAPQVADAILGNNIFSHYDKPTIASLSEKAGLYQRALENYTDIKDIKRCVVHTNALPIDWLVGYFGKLNVEQSLACLKALMDNNIQANIQTVVQVATKFSDLIGPSTLIKLFEDYNATEGLYYYLASLVNLTEDKDVVYKYIEAAAKMKQYREIERIVKDNNVYDPERVKNFLKDANLEDQLPLVIVCDRFDFVHEMILYLYKSQNLKFIETYVQQVNPSKTAQVVGALLDMDCDEAFIQSLLQSVLGQVPINELTTEVEKRNRLKILLPFLEQSLSQGIQDQAVYNALAKIYIDSNNSPEKFLKENDQYDTLDVGHYCEKRDPYLAYIAYEKGQNDDDLIRITNENSMYKYQARYLLERSDLDLWNKVLNQENIHRRQLIDSVISVGIPELTDPEPVSLTVQAFMTNGLKLELIELLEKIILEPSPFNENVALQGLLLLSAIKYEPTKVSSYIEKLDNYDADEIAPLCIEHDLKEEAFEIYDKHEMYGKALKVLIEDIMSLDRAASYADKINTPELWSQIGTAQLDGLRIPDAIESYIKAEDPSNYENVIDIAEQAGKYEELIPFLLMARKTLKEPKIDGALILAYAELNKIHEIENLLAGSNVANLDHVGDKLFENKEYKAARLCYSAVSNYSKLASTLVYLGDYQAAVDTARKASNIKVWKLVNDACIEKKEFKLAQICGLNLIVHAEELDELVERYESNGYFEELISLFEAGLGLERAHMGMFTELAILYSKYEPDKTFEHLKLFWSRINIPKVIRAVEQAHLWSELVFLYAHYDEWDNAALTLIEKSTKDLDHAYFKEVVVKVSNLEIYYKAINFYVKFHPSLLVDLLTSLTPRLDIPRTVKIFSKSDNLPLIKPFLINVLPKNNSVVNQAYHDLMIEEEDYKALQDAVDSYDKFDQLGLASRLESHKLIFFKKIGALLYRRNKKWAKSLSILKEEKLWKDAIETAAISQDPKVVEALLTYFVETGNREGFVALLYAAYNLVRIEFVLEISWMNSLEDYIKPFEISIKKEQNDSIKKITEELAKKSGSNEEHKDGQPLMLMNSAMNVQPTGF
partner: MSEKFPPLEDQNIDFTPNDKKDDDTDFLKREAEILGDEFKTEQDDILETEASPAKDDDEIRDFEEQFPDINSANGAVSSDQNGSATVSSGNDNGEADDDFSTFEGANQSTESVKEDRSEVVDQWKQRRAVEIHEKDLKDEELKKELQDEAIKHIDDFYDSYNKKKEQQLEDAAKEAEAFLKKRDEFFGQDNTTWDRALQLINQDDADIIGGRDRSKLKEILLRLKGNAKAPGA

Variants of: B1
Conditions: with clc1_yeast CLC1, P17891

Variant | effect of a mutation on the interaction
S1331F;S1347F | with no effect
S1331F;S1347F;P1553L;E1590K | disrupting interaction strength
S1331F;S1347F;E1590A | disrupting interaction strength
S1331F;S1347F;E1590K | disrupting interaction strength
S1331F;S1347F;P1553L | with no effect

The remaining lines, values ahead:

effect of a mutation on the interaction | Variant
disrupting interaction strength | P1553L;E1590K
with no effect | S1347F;P1553L
disrupting interaction strength | E1590K
disrupting interaction strength | S1347F;P1553L;E1590K

Variants of: B1
Conditions: with clc1_yeast CLC1, P17891
Remark: another data set of the same source

effect of a mutation on the interaction | Variant
disrupting interaction strength | S1331F;S1347F;E1590A
disrupting interaction strength | E1590A
